Patent US20250289901A1 (CHONGQING GENRIX BIOPHARMACEUTICAL, published 2025)

T1: BCMA on the surface of NCI-H929 human plasma cell leukemia cell (human, UniProt Q02223 1-184)
T1 construct: whole, on cells; also called BCMA positive NCI-H929 cells; BCMA-positive tumor cells
T1 sequence (looked up): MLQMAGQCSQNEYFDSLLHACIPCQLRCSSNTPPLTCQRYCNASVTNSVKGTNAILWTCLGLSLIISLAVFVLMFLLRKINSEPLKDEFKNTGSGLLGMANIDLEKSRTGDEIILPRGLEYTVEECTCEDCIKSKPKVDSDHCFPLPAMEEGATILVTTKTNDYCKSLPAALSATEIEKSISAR

T2: extracellular region of human BCMA with C-terminal His tag (human, UniProt Q02223 1-54)
T2 construct: No linker between the extracellular region and the tag is stated; also called hBCMA-his; hBCMA-His
T2 sequence: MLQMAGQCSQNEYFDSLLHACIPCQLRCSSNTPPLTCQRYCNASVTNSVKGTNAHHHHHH

B1: bispecific antibody CD3ExBCMA (bispecific antibody, human IgG1, kappa)
heavy 1: QVQLVESGGGVVQPGRSLRLSCAASGFKFSGYGMHWVRQAPGKGLEWVAVIWFDGSRKYYVDSVKGRFTISRDNSKNTLYLQMNSLRAEDTAVYYCARQMGYWHFGLWGRGTLVTVSSASTKGPSVFPLAPSSKSTSGGTAALGCLVKDYFPEPVTVSWNSGALTSGVHTFPAVLQSSGLYSLSSVVTVPSSSLGTQTYICNVNHKPSNTKVDKRVEPKSCDKTHTCPPCPAPEFEGGPSVFLFPPKPKDTLMISRTPEVTCVVVDVSHEDPEVKFNWYVDGVEVHNAKTKPREEQYNSTYRVVSVLTVLHQDWLNGKEYKCKVSNKALPASIEKTISKAKGQPREPQVYTLPPCREEMTKNQVSLWCLVKGFYPSDIAVEWESNGQPENNYKTTPPVLDSDGSFFLYSKLTVDKSRWQQGNVFSCSVMHEALHNHYTQKSLSLSPGK
heavy 2: QVQLVQSGAEVKKPGSSVKVSCKASGYTFTNYWMHWVRQAPGQGLEWMGATYRGHSDTYYNQKFKGRVTITADKSTSTAYMELSSLRSEDTAVYYCTRGAVYAGYDVLDYWGQGTTVTVSSASTKGPSVFPLAPSSKSTSGGTAALGCLVKDYFPEPVTVSWNSGALTSGVHTFPAVLQSSGLYSLSSVVTVPSSSLGTQTYICNVNHKPSNTKVDKRVEPKSCDKTHTCPPCPAPEFEGGPSVFLFPPKPKDTLMISRTPEVTCVVVDVSHEDPEVKFNWYVDGVEVHNAKTKPREEQYNSTYRVVSVLTVLHQDWLNGKEYKCKVSNKALPASIEKTISKAKGQPREPQVCTLPPSREEMTKNQVSLSCAVKGFYPSDIAVEWESNGQPENNYKTTPPVLDSDGSFFLVSKLTVDKSRWQQGNVFSCSVMHEALHNHYTQKSLSLSPGK
light: not shown
notes: It is a knob-into-hole IgG1 heterodimer with a common light chain; also called CD3E × BCMA; CD3 × BCMA
B2: anti-CD3E monoclonal antibody H10B7+L9B9 (antibody, human IgG1, kappa, V domains shown)
VH: QVQLVESGGGVVQPGRSLRLSCAASGFKFSGYGMHWVRQAPGKGLEWVAVIWFDGSRKYYVDSVKGRFTISRDNSKNTLYLQMNSLRAEDTAVYYCARQMGYWHFGLWGRGTLVTVSS
VL: DIQMTQSPSSLSASVGDRVTITCRASQSISNYLTWYQQKPGKAPKLLIYEASSRPSGVPSRFSGSGSGTDFTLTISSLQPEDFATYYCQQWSRLPVTFGQGTKVEIKR
B3: anti-BCMA monoclonal antibody H13F1+L9B9 (antibody, human IgG1, kappa, V domains shown)
VH: QVQLVQSGAEVKKPGSSVKVSCKASGYTFTNYWMHWVRQAPGQGLEWMGATYRGHSDTYYNQKFKGRVTITADKSTSTAYMELSSLRSEDTAVYYCTRGAVYAGYDVLDYWGQGTTVTVSS
VL: DIQMTQSPSSLSASVGDRVTITCRASQSISNYLTWYQQKPGKAPKLLIYEASSRPSGVPSRFSGSGSGTDFTLTISSLQPEDFATYYCQQWSRLPVTFGQGTKVEIKR
notes: also called mutant of C4 (IgG1 subtype)

Assays:
[1] = target: T1, BCMA on the surface of NCI-H929 human …; assay: flow cytometry on NCI-H929 cells, goat anti-human IgG-FITC
Experimental: (§1) NCI-H929 human plasma cell leukemia cells (Cell Resource Center, Institute of Basic Medicine, Chinese Academy of Medical Sciences) in logarithmic growth phase were harvested, centrifuged, and resuspended in PBS buffer containing 1% BSA to 2×10⁶ cells/mL, and plated at 100 μL/well in 96-well V bottom plates. […] Next, the cells were washed three times with 200 μL of PBS solution, and suspended in 100 μL of PBS solution. Thereafter, the FITC channel was detected by flow cytometer (ACEA, Novocyte).

[2] = target: T3, CD3E on the surface of Jurkat human acute T lymphocyte leukemia cell (human, UniProt P07766 23-207); assay: flow cytometry on Jurkat cells, goat anti-human IgG-FITC
T3 construct: whole, on cells; also called CD3 positive Jurkat cells
T3 sequence (P07766 23-207): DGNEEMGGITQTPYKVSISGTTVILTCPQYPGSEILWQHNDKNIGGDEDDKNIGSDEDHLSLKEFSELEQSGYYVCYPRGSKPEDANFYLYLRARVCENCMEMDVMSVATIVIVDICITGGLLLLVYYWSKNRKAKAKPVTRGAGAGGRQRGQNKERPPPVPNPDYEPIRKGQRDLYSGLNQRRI
Experimental: as §1, with “Jurkat human acute” for “NCI-H929 human plasma”, “Jurkat human acute T-lymphocyte leukemia cells” for “NCI-H929 human plasma cell leukemia cells”, “Sciences) in the logarithmic growth” for “Sciences) in logarithmic growth”

[3] = target: T2, extracellular region of human BCMA with …; assay: bridging ELISA: CD3E-FcK/CD3D-FcH coated, antibody, then BCMA-His, detected with HRP anti-His
Experimental: A 96-well ELISA plate was coated with CD3E-FcK/CD3D-FcH antigen (3 μg/mL, 100 μL/well), and was coated overnight in a refrigerator at 4° C. […] The ELISA plate was washed with PBS-0.1% Tween 20, followed by addition of BCMA-His antigen (1 μg/mL, 100 μL/well) and incubation at 37° C. for 1 hour. The ELISA plate was washed with PBS-0.1% Tween 20, followed by addition of HRP mouse anti-his IgG (Beijing ComWin Biotech Co., Ltd., cw0285M) and incubation at 37° C. for 1 hour. The ELISA plate was washed with PBS-0.1% Tween 20, and OPD substrate color development solution was added. The color development was terminated with 1 M H2SO4 after 5-10 minutes.

Row | Binder | EC50 (read off the curve) [1] [nM] | EC50 (read off the curve) [2] [nM] | binding result [3]
1 | B1 | ~8 |  | 
2 | B2 |  | ~1 | no binding
3 | B3 | ~8 |  | 
